Reference: patent US20210024625A1 (published 2021)

T1: PfRH5 from Plasmodium falciparum strain 3D7 (Plasmodium falciparum, UniProt Q8IFM5 25-526)
T1 sequence: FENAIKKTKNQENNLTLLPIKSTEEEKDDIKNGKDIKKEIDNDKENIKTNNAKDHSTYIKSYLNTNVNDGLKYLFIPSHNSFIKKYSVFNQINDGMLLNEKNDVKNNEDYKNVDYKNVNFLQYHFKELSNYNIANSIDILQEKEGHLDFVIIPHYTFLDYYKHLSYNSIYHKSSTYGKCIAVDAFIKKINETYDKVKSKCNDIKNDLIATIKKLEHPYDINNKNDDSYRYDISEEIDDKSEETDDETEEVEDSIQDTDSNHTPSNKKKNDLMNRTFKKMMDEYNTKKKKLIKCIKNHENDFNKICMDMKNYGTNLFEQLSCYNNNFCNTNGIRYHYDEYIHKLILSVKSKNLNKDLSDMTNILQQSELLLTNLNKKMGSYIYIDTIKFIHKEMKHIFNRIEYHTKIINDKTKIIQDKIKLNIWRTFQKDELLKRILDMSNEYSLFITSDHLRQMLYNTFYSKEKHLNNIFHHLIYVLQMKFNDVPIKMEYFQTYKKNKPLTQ


Tests used:
Assay in all cases: cell-based or functional assay
[1] = biological target: PfRH5 from Plasmodium falciparum strain Cam3.II (Plasmodium falciparum)
[2] = biological target: PfRH5 from Plasmodium falciparum strain Dd2 (Plasmodium falciparum)
[3] = biological target: PfRH5 from Plasmodium falciparum strain D10 (Plasmodium falciparum)
[4] = biological target: PfRH5 from Plasmodium falciparum strain FCR-1/FVO (Plasmodium falciparum)
[5] = biological target: PfRH5 from Plasmodium falciparum strain 7G8 (Plasmodium falciparum)
[6] = biological target: PfRH5 from Plasmodium falciparum strain W2-mef (Plasmodium falciparum)
[7] = biological target: PfRH5 from Plasmodium falciparum strain RF7 (Plasmodium falciparum)
[8] = biological target: PfRH5 from Plasmodium falciparum strain HB3 (Plasmodium falciparum)
[9] = biological target: T1, PfRH5 from Plasmodium falciparum strain …

Binder	Max growth inhibition (%) [1] [%]	Max growth inhibition (%) [2] [%]	Max growth inhibition (%) [3] [%]	Max growth inhibition (%) [4] [%]	Max growth inhibition (%) [5] [%]	Max growth inhibition (%) [6] [%]	Max growth inhibition (%) [7] [%]	Max growth inhibition (%) [8] [%]	Max growth inhibition (%) [9] [%]
H1H29207P2 (antibody, V domains shown) VH: EVQLVESGGGLVQPGGSLRLSCAASGFTFSSYAMNWVRQAPGKGLEWVSAVSGSADITNYADSVKGRFTISRDNSKHTLYLQMNSLRAEDTAVYYCAKDKVYNWNYGIYYGMDVWGQGTTVTVSS VL: not shown	45.3	61.3	73.9	69.2	58.7	65.2	31.1	49.3	
H1H29146P2 (antibody, V domains shown) VH: EVQLVESGGGLVQPGGSLQLSCAASGFAFSDSAIYWVRQASGKGLEWVGRIRNKANRFATAYGASVKGRFSIHRDDSKNTAYLQMNSLKTEDTAVYYCARHGHDTLTEGYGMDVWGQGTTVTVSS VL: not shown	8.18		10.8	7.32	19.1	0.57	5.97	33.9	8.57
H1H29151P2 (antibody, V domains shown) VH: QVQLVESGGGLVKPGGSLRLSCAASGFTFSDYYMNWVRQAPGKGLEWVSYISNSGNTQYYADSVKGRFTISRDNAKNSLFLQMNSLRAEDTAVYYCTREGLEYSSSEPFDYWGQGTLVTVSS VL: not shown	26.3	58	38.7	53.7	47.5	53.9	18.3	31.7	35.5
H1H29198P2 (antibody, V domains shown) VH: QVQLVQSGAEVKKPGASVKVSCKVSGYTLTELSMHWVRQAPGKGLEWMGGFDPEHGKIIYAQKFQGRVTMTEDTSTDTAYMELSSLRSEDTAVYYCATFYNWNSYYFGMDVWGHGTTVTVSS VL: not shown	14.7	10.1	4.38	11.1	5.31	-3.61	1.53	15.5	
H1H29192P2 (antibody, V domains shown) VH: QVQLVQSGAEVKKPGASVRVSCMASGYTFTGYYMHWVRQAPGQGLEWMGWINPNSGGTKYAQKFQGRVTMTRDTSISTAYMELSRLRSDDTAVYYCAREEVDDFWSGYLDYWGQGTLVTVSS VL: not shown	-3.38	-15.2	8.7	15.1	12.4	4.35	-7.69	5.62	
H1H29209P2 (antibody, V domains shown) VH: QLQLQESGPGLVKPSETLSLTCTVSGGSISSRSHYWGWIRQPPGKGLEWIGSIYYSGSTYYNPSLKSRVTISVDTSKNQFSLKLSSVTAADTAVYYCARLGWYAEEAFEIWGQGTMVTVSS VL: not shown	47.3	38.1	72.7	19.2	49.9	39.6	11.9	52.4	
H1H29214P2 (antibody, V domains shown) VH: QLQLQESGPGLVKPSETLSLTCTVSGGSISSSSYYWGWIRQPPGKGLEWIGSIYYSGSTYYNPSLKSRVTISVDTSKNQFSLKLSSVTAADTAVYYCARQGRWERENFDYWGQGTLVTVSS VL: not shown	46.7	47.2	76.5	13.1	56.7	52.7	11.2	59.1	
H1H29138P (antibody, V domains shown) VH: QVQLVESGGGVVQPGRSLRLSCAASGFTFSTYGMHWVRQAPGKGLEWVAVIWYDGTNKYYADSVKGRFTISRDNSKNTLYLQMISLRAEDTAVYYCARDPSGGDHYYYYGMDVWGQGTTVTVSS VL: DIQMTQSPSSLSASVGDRITITCQASQDISNYLNWYQQKPGKAPNLLISDASDLETGVPSRFSGSGSGTDFTFTISSLQPEDFATYYCQQYDNIPITFGQGTRLEIKR	48.7	74.4	57.1	84.1	57.4	66.4	51.4	51.4	58.5
H1H29166P2 (antibody, V domains shown) VH: EVQLVESGGGLLQPGRSLRLSCVASGFTFDDYAMHWVRQAPGKGLEWVSGISWNSESIGYADSVRGRFTISRDNAKNSLYLQMNSLRAEDTALYYCAKAPYSGTYFEYFRHWGQGTLVTVSS VL: not shown	55.9	60	70.9	69.7	54.6	61.9	19.4	54.9	53.1
H1H29215P2 (antibody, V domains shown) VH: QVQLQQWGAGLLKPSETLSLTCAVSDESFSDYYWTWIRQPPGKGLEWIGEITHSGSTHYNPSLKSRVTLSVDTSKNHFSLSLNSVTAADTAIYYCARGGDYGGLLDYWGQGTLVTVSS VL: not shown	27.2	22.8	35.8	54	33.2	37.2	11.3	30.1	
H1H29149P2 (antibody, V domains shown) VH: QVQLQESGPGLVKPSQTLSLTCTVSGGSISSGGYYWNWIRQHPGKGLEWIGYIYYSGSTYYNPSLKSRVTISVDTSKNQFSLKLGSVTAADTAVYYCARAPPYNWFDYWGQGTLVTVSS VL: not shown	36.2		66	58		42.8	14.7	40	44.1
H1H29141P (antibody, V domains shown) VH: QVQLVESGGGVVQPGRSLRLSCAASGFTFSSYGMHWVRQAPGKGLEWVTFISFDERNKYYADSVKGRFTISRDNSKNTLYLQMNSLRAEDTAMYYCASEVGYSFGHDAFDIWGQGTMVTVSS VL: not shown	49.3	65.3	50	74.2	54.6	56.2	32.1	50	48.2
H1H29163P2 (antibody, V domains shown) VH: QVQLVQSGAEVKKPGASVKVSCKTSGYTFTAYYIHWVRQAPGQGLEWMGWINPNNGDTNYALRFQGRVTMTRDMSINTAYMELRGLRSDDTAVYYCARDDLAAAGIGWFDSWGQGTLVTVSS VL: not shown	46.7	61.2		64.5	62.6	63.7	10.7	56.5	55.6
H1H29196P2 (antibody, V domains shown) VH: EVQLVESGGDLVQPGGSLRLSCAASGFAVNGDYFSWVRQAPGKGLEWISVIYSSGNTYYADSVKGRFTISRHNSKNTLYLQMSSLRPEDTAVYYCARDFPPMSGADYWGQGTLVTVSS VL: not shown	6.09	-1.65	14.3	21.9	23.4	17	3.78	26.8	
H1H29125P (antibody, V domains shown) VH: QVQLVESGGGVVQPGRSLRLSCAASGFTFSSYGMHWVRQAPGKGLEWMAVISYDGSNKYYADSVKGRFTISRDNSKNTLFLQMNSLRPEDTAVYYCAQDGSSAIYYFYGMDVWGQGTTVTVSS VL: DIQMTQSPSSLSASIGDRVTITCRASQDINNYLAWFQQKPGKAPKSLIYAASSLQSGVPSKFSGSGSGTDFTLTISSLQPEDFATYYCLQYNSYHPTFGQGTKLEIKR	42.7	51.4	75.4	67.6	47	64.6	21		51.1
